Laboratory results published in patent publication US20190330277A1.

How the values were obtained:
Assay in all cases: ELISA, variant from culture supernatant on Ni-NTA plate
[1] = molecular target: RB94 sc9 DS-CAV1 A149C-Y458C L373R Long
[2] = molecular target: 391-2-DS-Cav1-sc9deleteFS 99C-361C
[3] = molecular target: RB94 sc9 DS-CAV1 N183GC-N428C L373R Long S190V
[4] = molecular target: 391-2-DS-Cav1-BZGJ9 Long K226L
391-2-DS-Cav1-BZGJ9_gyc1 = molecular target: 391-2-DS-Cav1-BZGJ9_gyc1
[5] = molecular target: 391-2-DS-Cav1-sc9deleteFS 98C-361C
[6] = molecular target: 391-2-DS-Cav1_ sc9_I28C-G464C
[7] = molecular target: RB94 sc9 DS-CAV1 A149C-Y458C L373R Long S190V
391-2-DS-Cav1-BZGJ9 Long = molecular target: 391-2-DS-Cav1-BZGJ9 Long
391-2_DS-Cav1-tzsc7 = molecular target: 391-2_DS-Cav1-tzsc7
[8] = molecular target: sc9-10_DS-CAV1_bRSV(RB94)_Fd_hp2_ig1
391-2-DS-Cav1-IP-4 = molecular target: 391-2-DS-Cav1-IP-4
391-2-DS-Cav1-BZGJ9_gyc7 = molecular target: 391-2-DS-Cav1-BZGJ9_gyc7
[9] = molecular target: sc9-10_DS-CAV1_bRSV(RB94)_Fd_pm1_fp1_ig1
[10] = molecular target: 391-2-DS-Cav1_ sc9_I395C-A490C
391-2-DSCav1- F-SC_7R = molecular target: 391-2-DSCav1- F-SC_7R
[11] = molecular target: RB94 dscav1T369C-T455C Long S190V
[12] = molecular target: RB94 hu/bov DS-CAV1 A149C-Y458C Long
[13] = molecular target: RB94 sc9 DS-CAV1 N183GC-N428C L373R
[14] = molecular target: RB94 hu/bov DS-Cav1 Long FdPL
[15] = molecular target: RB94 site 0 hRSV DS-Cav1-BZGJ9 Long FdPL
[16] = molecular target: 391-2-DS-Cav1_ I28C-G464C
[17] = molecular target: 391-2 hu/bov-DS-Cav1-BZGJ9 Long
[18] = molecular target: 391-2-DS-Cav1-BZGJ9 Long S190V
[19] = molecular target: RB94 sc9 DS-CAV1 N183GC-N428C L373R Long K226L
RB94 DS-Cav1 Long FdPL = molecular target: RB94 DS-Cav1 Long FdPL
[20] = molecular target: 391-2-DS-Cav1-sc9deleteFS 100C-361C
[21] = molecular target: sc9-10_DS-CAV1_bRSV(RB94)_Fd_pm1_ig1
[22] = molecular target: 391-2-DS-Cav1_ sc9_S398C-S485C
[23] = molecular target: 391-2-DS-Cav1_ S398C-S485C
[24] = molecular target: 391-2-DS-Cav1-sc9 100C-362C
[25] = molecular target: RB94 DS-CAV1 T369C-T455C Long
391-2_DS-Cav1-tzsc3 = molecular target: 391-2_DS-Cav1-tzsc3
391-2-DS-Cav1-BZGJ9_gyc5 = molecular target: 391-2-DS-Cav1-BZGJ9_gyc5
[26] = molecular target: 391-2-DS-Cav1-sc9deleteFS 99C-362C
391-2_DS-Cav1-tzsc5 = molecular target: 391-2_DS-Cav1-tzsc5
[27] = molecular target: 391-2-site 0 hRSV DSCav1-BZGJ9 Long
[28] = molecular target: sc9-10_DS-CAV1_bRSV(RB94)_Fd_hp1_ig1
[29] = molecular target: sc9-10_DS-CAV1_bRSV(RB94)_Fd_hp2_fp1_ig1

## motavizumab (antibody)
[1]
  ELISA binding value: 0.512
[2]
  ELISA binding value: 0.606
[3]
  ELISA binding value: 0.617
[4]
  ELISA binding value: 1.94
391-2-DS-Cav1-BZGJ9_gyc1
  ELISA binding value: 2.12
[5]
  ELISA binding value: 0.899
[6]
  ELISA binding value: 0.569
[7]
  ELISA binding value: 0.537
391-2-DS-Cav1-BZGJ9 Long
  ELISA binding value: 1.55
391-2_DS-Cav1-tzsc7
  ELISA binding value: 1.99
[8]
  ELISA binding value: 2.52
391-2-DS-Cav1-IP-4
  ELISA binding value: 0.933
391-2-DS-Cav1-BZGJ9_gyc7
  ELISA binding value: 0.977
[9]
  ELISA binding value: 1.81
[10]
  ELISA binding value: 0.891
391-2-DSCav1- F-SC_7R
  ELISA binding value: 0.649
[11]
  ELISA binding value: 0.511
[12]
  ELISA binding value: 0.79
[13]
  ELISA binding value: 1.04
[14]
  ELISA binding value: 1.44
[15]
  ELISA binding value: 2.26
[16]
  ELISA binding value: 1.21
[17]
  ELISA binding value: 1.7
[18]
  ELISA binding value: 1.31
[19]
  ELISA binding value: 0.633
RB94 DS-Cav1 Long FdPL
  ELISA binding value: 0.841
[20]
  ELISA binding value: 0.477
[21]
  ELISA binding value: 2.22
[22]
  ELISA binding value: 0.487
[23]
  ELISA binding value: 0.545
[24]
  ELISA binding value: 0.603
[25]
  ELISA binding value: 0.448
391-2_DS-Cav1-tzsc3
  ELISA binding value: 0.785
391-2-DS-Cav1-BZGJ9_gyc5
  ELISA binding value: 2.04
[26]
  ELISA binding value: 0.612
391-2_DS-Cav1-tzsc5
  ELISA binding value: 1.57
[27]
  ELISA binding value: 2.08
[28]
  ELISA binding value: 2.42
[29]
  ELISA binding value: 2.18
